Values joined by “and” are separate entries in the source; they are usually repeats but may differ in a detail not shown here. Equal values may be shown once.
Assays:
NTSR1 protein = NTSR1 protein (Homo sapiens, UniProt P30989); assay: SPR (BIACORE T200) multi-cycle kinetic assay; settings: 25° C., one-to-one Langmuir binding model
Method: To know the binding kinetics differences among individual anti-NTSR1 antibodies, surface plasmon resonance (SPR) measurement with BIACORE™ T200 (CYTIVA® Inc.) was used as previously described (Karlsson & Falt, (1997) J. Immunol Methods 200:121-133). Carboxymethylated dextran biosensor chips (CM5, CYTIVA® Inc.) were activated with N-ethyl-N′-(3-dimethylaminopropyl)-carbodiimide hydrochloride (EDC) and N-hydroxysuccinimide (NHS) according to the supplier's instructions. NTSR1 protein was diluted with 10 mM sodium acetate, pH 4.0, into 5 μg/ml before injection at a flow rate of 10 μL/minute to achieve approximately 1500 response units (RU) of coupled protein followed by the injection of 1 M ethanolamine to block unreacted groups. For kinetics measurements, two-fold serial dilutions of anti-NTSR1 mAb (0.3125 nM to 40 nM) were injected in HBS-EP+BIACORET™ running buffer provided by the manufacturer (CYTIVA® Inc.) at 25° C. at a flow rate of 30 μL/min, and binding responses on the NTSR1 protein were corrected by subtraction of responses on a blank flow cell. Association rates (kon or Ka) and dissociation rates (koff or Kd) were calculated using a simple one-to-one Langmuir binding model with separate fittings of kon and koff. (CYTIVA® BIACORET™ Insight Evaluation Software).

[1] = test system: FaDu human head and neck cancer xenograft; assay: Xenograft model of anti-NTSR1 ADCs (head and neck cancer); type: in vivo, male NOD SCID mice; settings: for FaDu tumor growth: 5 mg/kg, Day 10 to Day 17
Method: The aim of this study was to evaluate the in vivo anti-tumor efficacy of αNTSR1 (AKT2) 4seco-DUBA, αNTSR1 (AKT2 Hu/Hu) 4seco-DUBA, and αNTSR1 (AKT2 Hu/Hd) 4seco-DUBA in FaDu human head and neck cancer xenograft model in male NOD SCID mice.
Formulations respectively comprising test article αNTSR1 (AKT2) 4seco-DUBA, test article αNTSR1 (AKT2 Hu/Hu) 4seco-DUBA, test article αNTSR1 (AKT2 Hu/Hd) 4seco-DUBA, and Hu IgG were formulated by diluting the stock with a 25 mM sodium citrate buffer (pH 6.5). […]
The FaDu cells were maintained in vitro as a monolayer culture in RPMI-1640 medium supplemented with 10% fetal bovine serum at 37° C. in an atmosphere of 5% CO2 in air. The tumor cells were routinely sub-cultured twice weekly by trypsin-EDTA treatment. The cells growing in an exponential growth phase were harvested and counted for tumor inoculation.
Male NOD SCID mice at age of 6-7 weeks were quarantined for one week. Five mice were housed in each cage. All animals were hosted in the animal facility with a 12-h light/12-h dark cycle at 19-25° C. Animals had free access to rodent pellet foods and water ad libitum.
FaDu cells were subcutaneously (SC) implanted (4×10^6 cells in 1:1 PBS/matrigel mixture at 0.1 mL per mouse) into the right flank of male NOD SCID mice. When the average tumor volume had reached about 200 mm^3, the mice were randomly divided into 7 groups (N=6 per group). Each of Hu IgG, αNTSR1 (AKT2) 4seco-DUBA (5 mg/kg), αNTSR1 (AKT2 Hu/Hu) 4seco-DUBA (5 mg/kg), and αNTSR1 (AKT2 Hu/Hd) 4seco-DUBA (5 mg/kg) was intravenously administered twice weekly for 3 weeks.
The tumor volumes, body weights, mortality, and signs of overt toxicity were monitored and recorded three times weekly for 28 days. Tumor volumes (mm^3) were measured three times per week using calipers and calculated according to the formula: Tumor Volume=(w^2×l)/2, where w=width and l=length in diameter (mm) of the tumor. The percentages of tumor growth inhibition (TGI) were calculated using the following formula: % TGI=[1−(T/C)]×100%, where T and C represent the mean tumor volumes of the treatment group and the control group, respectively. A TGI (%) value≥58% was considered as indicating significant anti-tumor activity. Animals were weighed three times weekly until the completion of the study.

[2] = In vivo pharmacokinetic analysis (MSD ECL total antibody assay); settings: BALB/c mice, 5 mg/kg via the tail vein; for MRT / Vss / t½: total antibody; for in vivo half live: 5 mg/kg
Excerpt: This Example used Meso Scale Discovery (MSD) Electrochemiluminescent (ECL) method to conduct the PK analysis of the anti-NTSR1 antibodies αNTSR1 (AKT2), αNTSR1 (AKT2 Hu/Hu) and αNTSR1 (AKT2 Hu/Hd) in BALB/c mice samples. The MSD assay can measure both conjugated and unconjugated antibodies. As illustrated in this example, for total antibody assay (including conjugated and unconjugated antibodies), the plate is coated with goat anti-human IgG, which can capture all humanized antibodies (conjugated and unconjugated).
The mice were administered at a dose level of 5 mg/kg via the tail vein. Blood samples were then obtained at different time points for determining the concentrations of αNTSR1 (AKT2), αNTSR1 (AKT2 Hu/Hu) and αNTSR1 (AKT2 Hu/Hd) in mice by MESO QuickPlex SQ 120 method. The PK parameters of αNTSR1 (AKT2), αNTSR1 (AKT2 Hu/Hu) and αNTSR1 (AKT2 Hu/Hd) were analyzed by noncompartmental analysis using PHOENIX™ for WinNonlin Program, version 6.3.

FaDu cells = assay: In vitro cytotoxicity study (CELLTITER-GLO); type: cell-based, human; settings: 72 hours treatment, cell viability, read-out: Relative IC50
Method: Human head and neck cancer cell line FaDu was respectively grown in RPMI-1640 medium (ATCC® modification) supplemented with 10% fetal bovine serum. The FaDu cell lines were maintained in an atmosphere of 5% CO2 in a humidified 37° C. incubator. The day before treatment, cells were collected and seeded into 96-well plates (4,000 cells per well). Each treatment was performed in eight triplicate data points. After the treatment of 72 hours, cell viability was assessed by CELLTITER-GLO® kit (PROMEGA®) according to the manufacturer's instruction. At the end of the incubation, luminescence was measured using a SpectraMax i3x Multi Mode Detection Platform (MOLECULAR DEVICES®). Compound cytotoxicity was evaluated in comparison to cells treated with 0.05% PBS (ADCs) or 0.05% DMSO (toxic payload). IC50 values were calculated by fitting viability data with a four-parameter logistic equation using GRAPHPAD® prism 5.0 software.

Sequence of NTSR1 protein (P30989 whole entry): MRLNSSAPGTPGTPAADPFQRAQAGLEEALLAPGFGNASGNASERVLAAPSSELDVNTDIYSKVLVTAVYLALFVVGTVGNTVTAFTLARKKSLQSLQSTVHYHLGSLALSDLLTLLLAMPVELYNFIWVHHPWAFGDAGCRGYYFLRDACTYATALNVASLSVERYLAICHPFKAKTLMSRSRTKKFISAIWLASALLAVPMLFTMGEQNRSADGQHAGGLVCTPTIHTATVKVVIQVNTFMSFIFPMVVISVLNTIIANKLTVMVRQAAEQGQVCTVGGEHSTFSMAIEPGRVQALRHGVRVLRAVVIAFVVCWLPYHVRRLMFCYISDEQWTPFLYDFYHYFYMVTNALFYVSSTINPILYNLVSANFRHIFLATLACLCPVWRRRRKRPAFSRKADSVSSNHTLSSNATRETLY

B1: AKT2 HuHu: humanized anti-NTSR1 antibody, AKT2 HuVH (SEQ ID NO: 16) and AKT2 HuVL (SEQ ID NO: 17) (antibody, V domains shown)
VH: QVQLVQSGAEVKKPGASVKVSCKASGYAFTSSWIHWVRQAPGQGLEWMGQIRPNSGNTYYNEKFKVRVTMTRDTSTSTVYMELSSLRSEDTAVYYCARYHYGFDYWGQGTLVTVSS
VL: DIVMTQTPLSLSVTPGQPASISCRSSQSIVHSNGNTYLEWYLQKPGQSPQLLIYKVSNRFSGVPDRFSGSGSGTDFTLKISRVEAEDVGVYYCFQGAHLPWTFGQGTKVEIK
Ka (kon, association rate) (NTSR1 protein): 787700 M⁻¹ s⁻¹ | Kd (koff, dissociation rate) (NTSR1 protein): 0.0008084 s⁻¹ | TGI % (1-T/C) Day 0 ([1]; 5 mpk, IV, BIW × 3): 0.0% | TGI % (1-T/C) Day 3 ([1]; 5 mpk, IV, BIW × 3, Day 3): 17.7% | TGI % (1-T/C) Day 5 ([1]; 5 mpk, IV, BIW × 3): 33.4% | TGI % (1-T/C) Day 7 ([1]; 5 mpk, IV, BIW × 3): 37.3% | TGI % (1-T/C) Day 10 ([1]; 5 mpk, IV, BIW × 3): 13.4% | TGI % (1-T/C) Day 12 ([1]; 5 mpk, IV, BIW × 3): 6.7% | TGI % (1-T/C) Day 14 ([1]; 5 mpk, IV, BIW × 3): 25.6% | TGI % (1-T/C) Day 17 ([1]; 5 mpk, IV, BIW × 3): 26.9% | MRT [2]: 252 ± 116 h | Vss [2]: 0.120 ± 0.026 L/kg | t½ [2]: 182 ± 90.8 h | in vivo half live ([2]; listed as αNTSR1 (AKT2 Hu/Hu)): 182 ± 90.8 h

B2: AKT2 HuHd: humanized anti-NTSR1 antibody, AKT2 HuVH (SEQ ID NO: 16) and AKT2 HdVL (SEQ ID NO: 15) (antibody, V domains shown)
VH: QVQLVQSGAEVKKPGASVKVSCKASGYAFTSSWIHWVRQAPGQGLEWMGQIRPNSGNTYYNEKFKVRVTMTRDTSTSTVYMELSSLRSEDTAVYYCARYHYGFDYWGQGTLVTVSS
VL: DIQMTQSPSSLSASVGDRVTITCRSSQSIVHSNGNTYLEWYQQKPGKAPKLLIYKVSNRFSGVPSRFSGSGSGTDFTLTISSLQPEDFATYYCFQGAHLPWTFGQGTKVEIK
Ka (kon, association rate) (NTSR1 protein): 461400 M⁻¹ s⁻¹ | Kd (koff, dissociation rate) (NTSR1 protein): 0.0006575 s⁻¹ | TGI % (1-T/C) Day 0 ([1]; 5 mpk, IV, BIW × 3): 0.0% | TGI % (1-T/C) Day 5 ([1]; 5 mpk, IV, BIW × 3): 13.1% | TGI % (1-T/C) Day 7 ([1]; 5 mpk, IV, BIW × 3): 28.4% | TGI % (1-T/C) Day 10 ([1]; 5 mpk, IV, BIW × 3): 36.2% | TGI % (1-T/C) Day 12 ([1]; 5 mpk, IV, BIW × 3): 40.9% | TGI % (1-T/C) Day 14 ([1]; 5 mpk, IV, BIW × 3): 37.8% | TGI % (1-T/C) Day 17 ([1]; 5 mpk, IV, BIW × 3): 32.5% | MRT [2]: 209 ± 62.5 h | Vss [2]: 0.135 ± 0.020 L/kg | t½ [2]: 156 ± 48.6 h | in vivo half live ([2]; listed as αNTSR1 (AKT2 Hu/Hd)): 156 ± 48.6 h

B3: αNTSR1 (AKT2 Hu/Hu) 4seco-DUBA: antibody-drug conjugate of humanized antibody AKT2 HuHu with seco-DUBA payload (conjugate)
heavy chain: QVQLVQSGAEVKKPGASVKVSCKASGYAFTSSWIHWVRQAPGQGLEWMGQIRPNSGNTYYNEKFKVRVTMTRDTSTSTVYMELSSLRSEDTAVYYCARYHYGFDYWGQGTLVTVSS
light chain: DIVMTQTPLSLSVTPGQPASISCRSSQSIVHSNGNTYLEWYLQKPGQSPQLLIYKVSNRFSGVPDRFSGSGSGTDFTLKISRVEAEDVGVYYCFQGAHLPWTFGQGTKVEIK
IC50 (FaDu cells): 12.5 nM | FaDu tumor growth [1]: significantly reduced FaDu tumor growth | TGI % (1-T/C) Day 0 ([1]; 5 mpk, IV, BIW × 3): 0.0% | TGI % (1-T/C) Day 5 ([1]; 5 mpk, IV, BIW × 3): 17.5% | TGI % (1-T/C) Day 7 ([1]; 5 mpk, IV, BIW × 3): 47.2% | TGI % (1-T/C) Day 10 ([1]; 5 mpk, IV, BIW × 3): 65.4% | TGI % (1-T/C) Day 12 ([1]; 5 mpk, IV, BIW × 3): 72.2% | TGI % (1-T/C) Day 14 ([1]; 5 mpk, IV, BIW × 3): 83.8% | TGI % (1-T/C) Day 17 ([1]; 5 mpk, IV, BIW × 3): 90.8%

B4: AKT2: affinity-matured mouse-human chimera anti-NTSR1 antibody, AKT2 VH (SEQ ID NO: 9) and AKT2 VL (SEQ ID NO: 10) (antibody, V domains shown)
VH: QVQLQQPGSVLVRPGASVKLSCKASGYAFTSSWIHWAKQRPGQGLEWIGQIRPNSGNTYYNEKFKVKATLTVDTSSSTAYVDLSSLTSEDSAVYYCARYHYGFDYWGQGTLVTVSS
VL: DVLMTQTPLSLPVSLGDQASISCRSSQSIVHSNGNTYLEWYLQKPGQSPKLLIYKVSNRFSGVPDRFSGSGSGTDFTLKISRVEAEDLGVYYCFQGAHLPWTFGGGTKLEIK
Ka (kon, association rate) (NTSR1 protein): 406800 M⁻¹ s⁻¹ | Kd (koff, dissociation rate) (NTSR1 protein): 0.0006558 s⁻¹ | TGI % (1-T/C) Day 0 ([1]; 5 mpk, IV, BIW × 3): 0.0% | TGI % (1-T/C) Day 5 ([1]; 5 mpk, IV, BIW × 3): 11.1% | TGI % (1-T/C) Day 7 ([1]; 5 mpk, IV, BIW × 3): 34.8% | TGI % (1-T/C) Day 10 ([1]; 5 mpk, IV, BIW × 3): 31.0% | TGI % (1-T/C) Day 12 ([1]; 5 mpk, IV, BIW × 3): 31.1% | TGI % (1-T/C) Day 14 ([1]; 5 mpk, IV, BIW × 3): 29.9% | TGI % (1-T/C) Day 17 ([1]; 5 mpk, IV, BIW × 3): 21.6% | MRT [2]: 89.6 ± 6.6 h | Vss [2]: 0.159 ± 0.010 L/kg | t½ [2]: 71.7 ± 5.1^ h | in vivo half live ([2]; listed as αNTSR1 (AKT2)): 71.7 ± 5.1 h and 71 h

B5: αNTSR1 (AKT2) 4seco-DUBA: antibody-drug conjugate of chimera antibody AKT2 with seco-DUBA payload (conjugate)
heavy chain: QVQLQQPGSVLVRPGASVKLSCKASGYAFTSSWIHWAKQRPGQGLEWIGQIRPNSGNTYYNEKFKVKATLTVDTSSSTAYVDLSSLTSEDSAVYYCARYHYGFDYWGQGTLVTVSS
light chain: DVLMTQTPLSLPVSLGDQASISCRSSQSIVHSNGNTYLEWYLQKPGQSPKLLIYKVSNRFSGVPDRFSGSGSGTDFTLKISRVEAEDLGVYYCFQGAHLPWTFGGGTKLEIK
IC50 (FaDu cells): 36.9 nM | FaDu tumor growth [1]: significantly reduced FaDu tumor growth | TGI % (1-T/C) Day 0 ([1]; 5 mpk, IV, BIW × 3): 0.0% | TGI % (1-T/C) Day 5 ([1]; 5 mpk, IV, BIW × 3): 28.5% | TGI % (1-T/C) Day 7 ([1]; 5 mpk, IV, BIW × 3): 54.4% | TGI % (1-T/C) Day 10 ([1]; 5 mpk, IV, BIW × 3): 68.5% | TGI % (1-T/C) Day 12 ([1]; 5 mpk, IV, BIW × 3): 83.8% | TGI % (1-T/C) Day 14 ([1]; 5 mpk, IV, BIW × 3): 90.5% | TGI % (1-T/C) Day 17 ([1]; 5 mpk, IV, BIW × 3): 95.3%
